This passage reports Kd results from publication PMC7042088.

The term Kd denotes the constant that tells how readily two partners part at equilibrium. A higher Kd goes with a looser complex.

This test deals with fluorescently labelled UDP-peptide bisubstrate conjugate. Kind of test: fluorescence polarisation; increasing concentrations of OGT titrated against a fixed concentration of the fluorescent probe; 0.1 M Tris/HCl pH 7.5, 0.15 M NaCl, 0.5 mM TCEP, 5% DMSO; 30 min in the dark. (In fluorescence polarisation assays a small probe gives low polarisation when free and higher when bound to something large.)

B1: O-GlcNAc transferase, truncated wild type (catalytic domain and 3.5 TPR repeats, residues 323-1044) (enzyme)
chain: CPTHADSLNNLANIKREQGNIEEAVRLYRKALEVFPEFAAAHSNLASVLQQQGKLQEALMHYKEAIRISPTFADAYSNMGNTLKEMQDVQGALQCYTRAIQINPAFADAHSNLASIHKDSGNIPEAIASYRTALKLKPDFPDAYCNLAHCLQIVCDWTDYDERMKKLVSIVADQLEKNRLPSVHPHHSMLYPLSHGFRKAIAERHGNLCLDKINVLHKPPYEHPKDLKLSDGRLRVGYVSSDFGNHPTSHLMQSIPGMHNPDKFEVFCYALSPDDGTNFRVKVMAEANHFIDLSQIPCNGKAADRIHQDGIHILVNMNGYTKGARNELFALRPAPIQAMWLGYPGTSGALFMDYIITDQETSPAEVAEQYSEKLAYMPHTFFIGDHANMFPHLKKKAVIDFKSNGHIYDNRIVLNGIDLKAFLDSLPDVKIVKMKCPDGGDNADSSNTALNMPVIPMNTIAEAVIEMINRGQIQITINGFSISNGLATTQINNKAATGEEVPRTIIVTTRSQYGLPEDAIVYCNFNQLYKIDPSTLQMWANILKRVPNSVLWLLRFPAVGEPNIQQYAQNMGLPQNRIIFSPVAPKEEHVRRGQLADVCLDTPLCNGHTTGMDVLWAGTPMVTMPGETLASRVAASQLTCLGCLELIAKNRQEYEDIAVKLGTDLEYLKKVRGKVWKQRISSPLFNTKQYTMELERLYLQMWEHYAAGNKPDHMIKPVEVTE
In turn, B1 gave a dissociation constant Kd of 1.6 µM.

B2: O-GlcNAc transferase N648Y, truncated (catalytic domain and 3.5 TPR repeats, residues 323-1044) (enzyme)
chain: CPTHADSLNNLANIKREQGNIEEAVRLYRKALEVFPEFAAAHSNLASVLQQQGKLQEALMHYKEAIRISPTFADAYSNMGNTLKEMQDVQGALQCYTRAIQINPAFADAHSNLASIHKDSGNIPEAIASYRTALKLKPDFPDAYCNLAHCLQIVCDWTDYDERMKKLVSIVADQLEKNRLPSVHPHHSMLYPLSHGFRKAIAERHGNLCLDKINVLHKPPYEHPKDLKLSDGRLRVGYVSSDFGNHPTSHLMQSIPGMHNPDKFEVFCYALSPDDGTNFRVKVMAEANHFIDLSQIPCNGKAADRIHQDGIHILVNMNGYTKGARYELFALRPAPIQAMWLGYPGTSGALFMDYIITDQETSPAEVAEQYSEKLAYMPHTFFIGDHANMFPHLKKKAVIDFKSNGHIYDNRIVLNGIDLKAFLDSLPDVKIVKMKCPDGGDNADSSNTALNMPVIPMNTIAEAVIEMINRGQIQITINGFSISNGLATTQINNKAATGEEVPRTIIVTTRSQYGLPEDAIVYCNFNQLYKIDPSTLQMWANILKRVPNSVLWLLRFPAVGEPNIQQYAQNMGLPQNRIIFSPVAPKEEHVRRGQLADVCLDTPLCNGHTTGMDVLWAGTPMVTMPGETLASRVAASQLTCLGCLELIAKNRQEYEDIAVKLGTDLEYLKKVRGKVWKQRISSPLFNTKQYTMELERLYLQMWEHYAAGNKPDHMIKPVEVTE
The molecule B2 yielded a Kd of 11 µM.
